From patent US20160024159A1

How the values were obtained:
Assay in all cases: cell-based or functional assay
[1] = target: human voltage-gated sodium channel Nav1.7 (human) (UniProt Q15858)
[2] = target: human Nav1.7 voltage-gated sodium channel (human) (UniProt Q15858)
[3] = target: TTX-sensitive Nav channels in mouse DRG neurons
[4] = target: human voltage-gated sodium channel Nav1.4 (human) (UniProt P35499)
[5] = target: human voltage-gated sodium channel Nav1.3 (human) (UniProt Q9NY46)
[6] = target: human voltage-gated sodium channel Nav1.5 (human) (UniProt Q14524)

Chain of human voltage-gated sodium channel Nav1.7 (human) (Q15858 whole entry): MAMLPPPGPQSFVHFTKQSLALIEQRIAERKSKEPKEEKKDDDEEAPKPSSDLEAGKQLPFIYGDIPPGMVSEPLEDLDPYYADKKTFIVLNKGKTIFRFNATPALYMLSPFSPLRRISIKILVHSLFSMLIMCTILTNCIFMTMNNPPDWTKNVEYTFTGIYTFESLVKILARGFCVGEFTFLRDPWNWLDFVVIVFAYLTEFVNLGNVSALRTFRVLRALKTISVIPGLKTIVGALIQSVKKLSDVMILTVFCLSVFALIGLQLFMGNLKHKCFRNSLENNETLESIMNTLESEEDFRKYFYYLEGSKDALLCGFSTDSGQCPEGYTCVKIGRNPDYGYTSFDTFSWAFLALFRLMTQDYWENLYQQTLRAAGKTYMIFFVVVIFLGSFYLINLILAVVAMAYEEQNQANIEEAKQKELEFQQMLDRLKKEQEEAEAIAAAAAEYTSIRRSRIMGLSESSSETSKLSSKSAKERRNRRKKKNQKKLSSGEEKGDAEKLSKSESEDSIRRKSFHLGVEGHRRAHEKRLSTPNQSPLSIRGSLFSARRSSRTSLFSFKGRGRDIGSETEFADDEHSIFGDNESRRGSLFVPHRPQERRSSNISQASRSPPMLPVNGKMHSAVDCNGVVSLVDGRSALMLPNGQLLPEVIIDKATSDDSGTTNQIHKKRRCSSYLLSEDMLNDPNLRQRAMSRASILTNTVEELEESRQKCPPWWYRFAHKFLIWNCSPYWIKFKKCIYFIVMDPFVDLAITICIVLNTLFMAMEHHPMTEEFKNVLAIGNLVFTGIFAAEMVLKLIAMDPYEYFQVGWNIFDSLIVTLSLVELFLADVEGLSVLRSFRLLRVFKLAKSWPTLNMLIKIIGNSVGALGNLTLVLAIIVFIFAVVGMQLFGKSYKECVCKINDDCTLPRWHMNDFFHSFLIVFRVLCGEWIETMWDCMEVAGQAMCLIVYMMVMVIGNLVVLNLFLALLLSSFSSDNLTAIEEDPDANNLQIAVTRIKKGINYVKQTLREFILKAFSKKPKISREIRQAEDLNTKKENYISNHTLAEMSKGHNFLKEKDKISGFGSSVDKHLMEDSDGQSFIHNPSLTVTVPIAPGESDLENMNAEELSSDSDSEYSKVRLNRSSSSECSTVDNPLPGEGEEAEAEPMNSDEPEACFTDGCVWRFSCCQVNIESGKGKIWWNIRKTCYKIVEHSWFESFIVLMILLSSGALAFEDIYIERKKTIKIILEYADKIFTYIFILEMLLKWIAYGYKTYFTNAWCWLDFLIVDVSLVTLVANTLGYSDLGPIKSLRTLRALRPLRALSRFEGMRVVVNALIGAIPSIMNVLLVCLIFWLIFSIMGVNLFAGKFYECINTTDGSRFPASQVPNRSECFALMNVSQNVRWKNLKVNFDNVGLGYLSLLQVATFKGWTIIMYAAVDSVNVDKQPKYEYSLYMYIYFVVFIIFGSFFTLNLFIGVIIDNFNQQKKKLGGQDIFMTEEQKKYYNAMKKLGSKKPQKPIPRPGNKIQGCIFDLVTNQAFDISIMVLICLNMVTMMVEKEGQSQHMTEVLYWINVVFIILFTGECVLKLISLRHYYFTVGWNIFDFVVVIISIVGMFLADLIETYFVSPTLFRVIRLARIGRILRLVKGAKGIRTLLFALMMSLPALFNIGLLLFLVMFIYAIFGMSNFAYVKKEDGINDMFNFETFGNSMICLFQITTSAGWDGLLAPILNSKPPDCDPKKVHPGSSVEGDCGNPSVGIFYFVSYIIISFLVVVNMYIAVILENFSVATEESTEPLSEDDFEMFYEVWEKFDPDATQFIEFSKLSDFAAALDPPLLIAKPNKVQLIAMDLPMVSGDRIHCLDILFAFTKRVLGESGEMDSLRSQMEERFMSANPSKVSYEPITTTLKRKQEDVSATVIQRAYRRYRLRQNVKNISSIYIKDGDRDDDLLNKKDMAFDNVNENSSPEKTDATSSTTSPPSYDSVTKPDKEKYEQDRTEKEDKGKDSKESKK
Chain of human voltage-gated sodium channel Nav1.4 (human) (P35499 whole entry): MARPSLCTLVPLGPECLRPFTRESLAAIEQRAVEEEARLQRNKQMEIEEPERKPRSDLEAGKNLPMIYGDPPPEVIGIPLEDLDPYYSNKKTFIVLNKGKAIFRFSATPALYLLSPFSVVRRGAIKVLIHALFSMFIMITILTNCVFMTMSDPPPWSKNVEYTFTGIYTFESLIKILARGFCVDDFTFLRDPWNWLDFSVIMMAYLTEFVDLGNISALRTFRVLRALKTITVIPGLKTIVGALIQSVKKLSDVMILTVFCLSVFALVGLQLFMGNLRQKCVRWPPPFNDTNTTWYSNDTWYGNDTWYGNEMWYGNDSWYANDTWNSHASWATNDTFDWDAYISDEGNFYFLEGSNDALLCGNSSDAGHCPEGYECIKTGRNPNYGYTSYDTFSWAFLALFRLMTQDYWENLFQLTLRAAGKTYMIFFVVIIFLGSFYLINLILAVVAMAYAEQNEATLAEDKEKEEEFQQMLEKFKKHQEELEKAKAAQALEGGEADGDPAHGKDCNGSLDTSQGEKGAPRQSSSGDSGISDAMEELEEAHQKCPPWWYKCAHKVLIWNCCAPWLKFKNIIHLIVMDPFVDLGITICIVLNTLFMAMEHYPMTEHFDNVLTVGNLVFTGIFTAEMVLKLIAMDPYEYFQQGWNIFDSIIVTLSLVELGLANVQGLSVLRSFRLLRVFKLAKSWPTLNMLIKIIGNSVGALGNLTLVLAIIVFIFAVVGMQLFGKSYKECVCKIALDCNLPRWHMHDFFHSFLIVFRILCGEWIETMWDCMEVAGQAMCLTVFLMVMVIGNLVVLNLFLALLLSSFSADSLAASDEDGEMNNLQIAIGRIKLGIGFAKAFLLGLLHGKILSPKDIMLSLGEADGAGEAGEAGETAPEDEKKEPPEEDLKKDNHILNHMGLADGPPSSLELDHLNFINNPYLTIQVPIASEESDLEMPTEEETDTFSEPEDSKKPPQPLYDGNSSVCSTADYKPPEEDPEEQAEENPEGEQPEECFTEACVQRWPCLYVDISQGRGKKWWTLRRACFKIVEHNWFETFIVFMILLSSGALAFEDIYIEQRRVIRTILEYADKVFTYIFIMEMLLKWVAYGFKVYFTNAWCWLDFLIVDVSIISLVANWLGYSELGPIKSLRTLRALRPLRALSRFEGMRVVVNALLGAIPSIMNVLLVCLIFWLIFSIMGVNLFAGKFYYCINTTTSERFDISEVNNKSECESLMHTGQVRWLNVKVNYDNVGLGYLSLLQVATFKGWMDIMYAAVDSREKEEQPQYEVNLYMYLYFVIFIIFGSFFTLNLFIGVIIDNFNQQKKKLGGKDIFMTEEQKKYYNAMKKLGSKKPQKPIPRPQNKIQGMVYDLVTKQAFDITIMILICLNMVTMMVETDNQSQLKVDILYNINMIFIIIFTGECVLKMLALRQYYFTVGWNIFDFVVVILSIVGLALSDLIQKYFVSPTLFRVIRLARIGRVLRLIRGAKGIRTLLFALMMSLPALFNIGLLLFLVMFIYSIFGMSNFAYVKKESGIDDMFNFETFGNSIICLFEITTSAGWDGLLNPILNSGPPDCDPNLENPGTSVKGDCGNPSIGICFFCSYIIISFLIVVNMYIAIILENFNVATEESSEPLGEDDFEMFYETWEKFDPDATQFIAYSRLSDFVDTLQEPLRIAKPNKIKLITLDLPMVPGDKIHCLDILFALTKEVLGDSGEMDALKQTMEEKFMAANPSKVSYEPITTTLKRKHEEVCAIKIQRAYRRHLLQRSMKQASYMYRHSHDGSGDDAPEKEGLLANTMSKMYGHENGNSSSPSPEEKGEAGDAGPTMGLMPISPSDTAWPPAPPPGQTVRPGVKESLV
Chain of human Nav1.7 voltage-gated sodium channel (human) (Q15858 whole entry): as the sequence (Q15858 whole entry) above

CyA-[Nle6; Val8; Lys17; Glu28]JzTx-V(1-29) (peptide)
PX hNav1.7 Tonic IC50 [1]: 26.6 nM

Pra-[Nle6;5-BrW24;Glu28]JzTx-V(1-29) (peptide)
WCPC Mean IC50, partially inactivated [2]: 0.13 nM
WCPC Mean IC50, partially inactivated [3]: 3.8 nM

Pra-[Nle6;Glu12,28]JzTx-V(1-29) (peptide)
WCPC Mean IC50, partially inactivated [3]: 144 nM

Pra-[Nle6;Glu14,28]JzTx-V(1-29) (peptide)
WCPC Mean IC50, partially inactivated [3]: 99.8 nM

[Cit7;Glu20;Tyr28]JzTx-V(1-29) (peptide)
IC50, IonWorks Quattro electrophysiology [1]: 5.8 µM
IC50, IonWorks Quattro electrophysiology [4]: > 7 µM
IC50, IonWorks Quattro electrophysiology [5]: > 7 µM
IC50, IonWorks Quattro electrophysiology [6]: > 7 µM

[Nle6;Pra11;Glu20;Trp29]JzTx-V(1-29) (peptide)
IC50, IonWorks Quattro electrophysiology [1]: 0.026 µM

[Nva7;Glu20;Tyr28]JzTx-V(1-29) (peptide)
IC50, IonWorks Quattro electrophysiology [1]: 4.5 µM
IC50, IonWorks Quattro electrophysiology [4]: > 7 µM
IC50, IonWorks Quattro electrophysiology [5]: > 7 µM
IC50, IonWorks Quattro electrophysiology [6]: > 7 µM
